Data as given in US20220153832A1 (PIONYR IMMUNOTHERAPEUTICS, published 2022).
Positions count from the first letter of the chain named. Values belong to the binder of their own block, whether it stands above or below them.

Experiments:
[1] = target: T1, Cynomolgus MARCO, full length, on cells (cynomolgus, UniProt A0A2K5X0Z2 1-519); assay: flow cytometry, 293T (CyMARCO)
T1 construct: whole, on cells; also called cyno MARCO; CyMARCO
T1 sequence: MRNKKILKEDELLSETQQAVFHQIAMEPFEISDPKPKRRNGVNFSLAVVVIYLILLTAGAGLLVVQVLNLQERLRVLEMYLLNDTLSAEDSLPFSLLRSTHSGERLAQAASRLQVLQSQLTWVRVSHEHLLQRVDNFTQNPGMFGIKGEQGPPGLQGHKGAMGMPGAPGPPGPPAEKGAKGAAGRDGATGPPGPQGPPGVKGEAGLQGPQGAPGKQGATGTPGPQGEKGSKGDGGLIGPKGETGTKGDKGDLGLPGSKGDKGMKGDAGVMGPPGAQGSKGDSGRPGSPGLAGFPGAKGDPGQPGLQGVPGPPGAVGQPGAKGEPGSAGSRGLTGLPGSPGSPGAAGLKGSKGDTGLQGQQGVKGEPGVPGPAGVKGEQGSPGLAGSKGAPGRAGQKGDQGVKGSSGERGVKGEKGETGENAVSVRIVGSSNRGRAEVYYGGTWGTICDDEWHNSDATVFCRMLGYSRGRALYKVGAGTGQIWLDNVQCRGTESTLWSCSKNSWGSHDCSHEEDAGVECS
Procedure: Supernatants were removed and cell pellets were resuspended in Ca²⁺+ and Mg²⁺+ Dulbecco's phosphate-buffered saline (D-PBS) at 1×10⁶ cells/ml. 100,000 cells/well were plated onto U-bottom 96-well plates for staining and all centrifugation steps were performed at 1500 rpm at 4° C. for 5 min and samples were kept protected from light throughout the protocol. Cells were pelleted and resuspended in 100 μl of Zombie NIR viability dye (BioLegend) prepared by diluting Zombie NIR dimethyl sulfoxide (DMSO) stock 1000-fold in D-PBS. Cells were stained by incubation for 10 min at room temperature (RT) in the dark, followed by quenching the staining reaction with the addition of 100 μl of Staining Medium (D-PBS containing 2% FBS and 2 mM ethylenediaminetetraacetic acid (EDTA). Cells were pelleted and resuspended in 100 μl of the different antibodies and hybridomas supernatants needed for screening and corresponding isotype controls in freshly prepared staining medium, such as PI-M014 and mIgG2b isotype. All mAbs were tested at the final top concentration of 100 nM (15 μg/ml) followed by an 8-point three-fold serial dilution, including 0 mg/ml control. Staining was carried out for 1 hour (hr) on ice, followed by 2 washes in Staining Medium. Cells were then pelleted and resuspended in 100 μl of allophycocyanin (APC)-conjugated goat anti-mouse IgG (Fc-specific) secondary antibody, prepared by 500-fold dilution of the antibody stocks in Staining Medium, and incubated for 30 min on ice. […] Flow cytometry data were analyzed using FlowJo software (version 10.6.1) and data were processed and further analyzed in Microsoft Excel and GraphPad Prism software (version 8). Half-maximal effective concentrations (EC₅₀) were calculated based on geometric mean fluorescence intensities (gMFI). In case when the plates were not able to be analyzed on the cytometer, cells were pelleted after the washes and fixed in 100 μl of 2% paraformaldehyde (PFA), prepared by diluting the 16% (w/v) stock (Thermo Fisher) in DPBS, for 15 min at RT. […]

[2] = target: T2, N-terminally polyhistidine tagged human MARCO ECD (147-520), recombinant (human, UniProt Q9UEW3 147-520); assay: ELISA on recombinant human MARCO, 50 mM EDTA
T2 construct: also called PI-RG-3000; recombinant human MARCO; not shown: N-terminal polyhistidine tag
T2 sequence: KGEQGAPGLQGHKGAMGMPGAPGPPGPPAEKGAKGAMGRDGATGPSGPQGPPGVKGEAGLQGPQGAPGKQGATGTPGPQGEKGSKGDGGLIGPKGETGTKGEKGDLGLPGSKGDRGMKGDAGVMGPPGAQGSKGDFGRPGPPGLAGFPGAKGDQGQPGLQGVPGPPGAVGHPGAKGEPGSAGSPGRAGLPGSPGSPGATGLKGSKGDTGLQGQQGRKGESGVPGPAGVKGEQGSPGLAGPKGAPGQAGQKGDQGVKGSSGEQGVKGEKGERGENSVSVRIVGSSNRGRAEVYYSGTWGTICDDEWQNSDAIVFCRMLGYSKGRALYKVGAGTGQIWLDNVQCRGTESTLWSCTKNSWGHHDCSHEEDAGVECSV
Procedure: After the plates were incubated at room temperature for 1 hour or 4° C. overnight, the plates were wash 3 times with ELISA wash buffer (PBS/0.05% TWEEN-20), then hybridoma supernatant (1:5 dilution) or purified antibody (1 ug) was diluted in DPBS/Ca2+/2% FBS, DPBS without Ca2+/2 mM EDTA/2% FBS, DPBS without Ca2+/10 mM EDTA/2% FBS, and DPBS without Ca2+/50 mM EDTA/2% FBS. Plates again were incubated at room temperature for 1 hour.

[3] = target: T2, N-terminally polyhistidine tagged human …; assay: SPR, single cycle (sc)
[4] = target: T3, recombinant cynomolgus MARCO protein (cynomolgus, UniProt A0A2K5X0Z2 65-519); assay: SPR, single cycle (sc)
T3 construct: Construct not described; also called cyno MARCO; cynoMARCO
T3 sequence: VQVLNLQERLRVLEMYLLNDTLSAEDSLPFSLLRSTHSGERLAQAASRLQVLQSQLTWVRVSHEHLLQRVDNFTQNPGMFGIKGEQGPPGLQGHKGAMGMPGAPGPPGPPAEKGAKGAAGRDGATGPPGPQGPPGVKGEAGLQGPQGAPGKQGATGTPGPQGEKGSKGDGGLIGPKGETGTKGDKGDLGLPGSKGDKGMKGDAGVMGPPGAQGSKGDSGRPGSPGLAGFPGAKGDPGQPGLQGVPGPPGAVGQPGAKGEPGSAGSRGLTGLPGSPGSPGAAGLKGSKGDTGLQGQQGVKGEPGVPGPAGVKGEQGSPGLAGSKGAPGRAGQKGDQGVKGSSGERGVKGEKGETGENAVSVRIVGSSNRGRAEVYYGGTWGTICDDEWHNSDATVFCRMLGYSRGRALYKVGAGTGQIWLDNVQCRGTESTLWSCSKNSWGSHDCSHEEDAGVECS

B2: PI-HX-3043 (antibody, rat IgG2a)
heavy: QVNLLQSRAALVKPGASVKLSCKASGYTFTDYYLHWVKQSHAKSLEWIGYINPNNAYTSYNEKFKSKATLTVDKSTNTAYMELSRLTSADSATYYCARDTTDYYNLHFAYWGQGTLVTVSSAETTAPSVYPLAPGTALKSNSMVTLGCLVKGYFPEPVTVTWNSGALSSGVHTFPAVLQSGLYTLTSSVTVPSSTWSSQAVTCNVAHPASSTKVDKKIVPRECNPCGCTGSEVSSVFIFPPKTKDVLTITLTPKVTCVVVDISQNDPEVRFSWFIDDVEVHTAQTHAPEKQSNSTLRSVSELPIVHRDWLNGKTFKCKVNSGAFPAPIEKSISKPEGTPRGPQVYTMAPPKEEMTQSQVSITCMVKGFYPPDIYTEWKMNGQPQENYKNTPPTMDTDGSYFLYSKLNVKKETWQQGNTFTCSVLHEGLHNHHTEKSLSHSP
light: DIQMTQSPASLSASLGETVSIECLTSEGISNDLAWYQQKSGKSPQLLIYDASRLEDGVPSRFSGSGSGTRYSLKISGMQTEDEADYFCQQSYKYPLTFGSGTKLEIKRADAAPTVSIFPPSTEQLATGGASVVCLMNNFYPRDISVKWKIDGTERRDGVLDSVTDQDSKDSTYSMSSTLSLTKADYESHNLYTCEVVHKTSSSPVVKSFNRNEC
notes: Parental rat hybridoma, rat IgG2a
EC50 [1]: 0.067 nM | ELISA signal (A450) [2]: 0.1

B4: PI-3015-AB (antibody, human IgG1, kappa)
heavy: not shown
light: DIQMTQSPSSLSASVGDRVTITCRASEGISNDLAWYQQKPGKAPKLLIYAASRLQSGVPSRFSGSGSGTDYTLTISSMQPEDFATYYCQQSYKYPLTFGQGTKLEIKRTVAAPSVFIFPPSDEQLKSGTASVVCLLNNFYPREAKVQWKVDNALQSGNSQESVTEQDSKDSTYSLSSTLTLSKADYEKHKVYACEVTHQGLSSPVTKSFNRGEC
Kd [3]: 0.911 nM | Kd [4]: 0.611 nM

The remaining lines, values ahead:

EC50 [1]: 0.046 nM | ELISA signal (A450) [2]: 0.0754
B1: PI-HX-3031 (antibody)
heavy: QVQLKESGPGLVQPSQTLSLTCTVSGFSLTSYHVSWVRQPPGKGLEWMGAIWTGGSIAYNSLLKSRLSISRDTSKSQVFLKMNSLQTEDTATYYCARDLSDYYSSYTSFDYWGQGVMVTVSTAETTAPSVYPLAPGTALKSNSMVTLGCLVKGYFPEPVTVTWNSGALSSGVHTFPAVLQSGLYTLTSSVTVPSSTWSSQAVTCNVAHPASSTKVDKKIVPRECNPCGCTGSEVSSVFIFPPKTKDVLTITLTPKVTCVVVDISQNDPEVRFSWFIDDVEVHTAQTHAPEKQSNSTLRSVSELPIVHRDWLNGKTFKCKVNSGAFPAPIEKSISKPEGTPRGPQVYTMAPPKEEMTQSQVSITCMVKGFYPPDIYTEWKMNGQPQENYKNTPPTMDTDGSYFLYSKLNVKKETWQQGNTFTCSVLHEGLHNHHTEKSLSHSP
light: B2 light with A13T, T25A, D50A, E55Q, T80P
notes: as for B2

Kd [3]: 0.43 nM | Kd [4]: 0.259 nM
B3: PI-3010-AB (antibody, human IgG1, kappa)
heavy: not shown
light: DIQMTQSPASLSTSLGETVSIECLASEGISNDLAWYQQKSGKSPQLLIYAASRLQDGVPSRFSGSGSGTRYSLKISGMQPEDEADYFCQQSYKYPLTFGSGTKLEIKRTVAAPSVFIFPPSDEQLKSGTASVVCLLNNFYPREAKVQWKVDNALQSGNSQESVTEQDSKDSTYSLSSTLTLSKADYEKHKVYACEVTHQGLSSPVTKSFNRGEC
